From patent US20240376193A1 (BIOSCEPTRE AUST, published 2024)

B1: BIL03 VH only (other)
VH: EVQLLESGGGLVQPGGSLRLSCAASGFTFRNHDMGWVRQAPGKGLEWVSAISGSGGSTYYANSVKGRFTISRDNSKNTLYLQMNSLRAEDTAVYYCAEPKPMDTEFDYRSPGTLVTVSS
notes: Human single-domain VH tested without a light chain; also called BIL03 heavy chain; single domain heavy chain protein BIL03
B2: BIL03-Germline B1 (other)
VH: B1 VH
VL: DIQMTQSPSSLSASVGDRVTITCRASQSISSYLNWYQQKPGKAPKLLIYAASSLQSGVPSRFSGSGSGTDFTLTISSLQPEDFATYYCQQFDYMPLTFGQGTKVEIKR
notes: also called G B1; GB1
B3: BIL03-WT B1 (scFv format) (scFv, V domains shown)
VH: B1 VH
VL: DIQMTQSPSSLSASVGDRVTITCRASQYIYDYLNWYQQKPGKAPKLLIYAASYLQSGVPSRFSGSGSGTDFTLTISSLQPEDFATYYCQQYHHPSTFGQGTKVEIKR
notes: Tested in scFv format, so VH and VL sit in one polypeptide

Target: T1, E200 peptide
T1 construct: Antigen derived from dysfunctional P2X7 receptor
T1 peptide: GHNYTTRNILPGLNITC
Assay: binding kinetics on E200 peptide; method not stated; column 'affinity (nM) (E200)'
In the case of B1, the Kd is reported as 127 nM. Binder B2 has a Kd of 83 nM. With B3 the Kd was 24 nM.

Target: T1, E200 peptide
Assay: binding kinetics on E200 peptide; method not stated
Work on B1 yielded a Kd of 127 nM. B2 showed a Kd of 82.7 nM. B3 gave a Kd of 24.2 nM.
